This passage reports ELISA signal results from patent publication US12065483.

The chains are these.
B1: F2-24 (VHH)
VHH: QVQLVESGGGLVQAGGSLRLSCASSGHTFNSYVMGWFRQAPGKEREFVAAIRPSGVSTYYADSVKGRFTISRDNAKNTVSLEMNSLKPEDTAVYYCAGDRDHSMMAVRRLSSYRQWGRGTQVTVSS
B2: F2-20 (VHH)
VHH: QVQLVESGGGLVQAGGSLRLSCAASGRTFSRYAMGWFRQAPGKEREFVARISWSGDITYYADSVKGRFTISRDNAKNTVYLQMNSLKPEDTAVYYCAADAILRTRPPYESDYWGQGTQVTVSS
B3: F2-02 (VHH)
VHH: QVQLVESGGGLVQAGGSLRLSCAASGRTFRSFAMGWFRQAPGKEREFVATISWWSNNTYYADSVKGRFTISRDIAKNTVYLQMNSLKPEDTAVYYCAADLGPWLTAGQYDYWGQGTQVTVSS
B4: F1-04 (VHH)
VHH: QVQLVESGGGLVQVGGSLRLSCAASERPSSNYAMGWFRQAPGKEQEFVAAIYWSGGGTAYGDSVKGRFTISKDNAKNTVYLQMNDLKPEDTGMYYCTTDHYGSWSYEYGSWGQGTQVTVSS

The target of one test is Influenza Hemagglutinin B (influenza B virus). The test is described as follows: ELISA on Influenza Hemagglutinin B (1 ug/mL); 293 supernatant diluted 1:10000.
B1 yielded an ELISA signal of 1.45.

As to B2, the ELISA signal was 0.805.

Take B3: the ELISA signal was 0.266.

In turn, B4 had an ELISA signal of 0.205.

Another test addresses Influenza Hemagglutinin A (influenza A virus). The test is described as follows: ELISA on Influenza Hemagglutinin A (1 ug/mL); 293 supernatant diluted 1:100.
Molecule B1 gave an ELISA signal of 0.427.

B2 yielded an ELISA signal of 0.629.

Turning to B3, the ELISA signal turned out to be 1.09.

Regarding B4, the ELISA signal stood at 2.

A further test has as its target Influenza Hemagglutinin B (influenza B virus). Put plainly: ELISA on Influenza Hemagglutinin B (1 ug/mL); 293 supernatant diluted 1:10. A general note: In an ELISA, binding on a coated surface is turned into a signal by an enzyme label.
For the molecule B1, the ELISA signal worked out at 1.69.

In turn, B2 returned an ELISA signal of 1.58.

As to B3, the ELISA signal amounted to 0.826.

In turn, B4 yielded an ELISA signal of 1.47.

A further test has the same target. Put plainly: ELISA on Influenza Hemagglutinin B (1 ug/mL); 293 supernatant diluted 1:100.
The molecule B1 came in with an ELISA signal of 1.85.

As for B2, the ELISA signal was 1.52.

Regarding B3, the ELISA signal stood at 0.863.

As for B4, the ELISA signal is 1.63.

For a further test, the target named is Influenza Hemagglutinin A (influenza A virus). The test is described as follows: ELISA on Influenza Hemagglutinin A (1 ug/mL); 293 supernatant diluted 1:10.
The molecule B1 registered an ELISA signal of 0.444.

Molecule B2 showed an ELISA signal of 0.884.

B3 showed an ELISA signal of 1.21.

B4: the ELISA signal was 1.76.

A further test shares this target. The test is described as follows: ELISA on Influenza Hemagglutinin A (1 ug/mL); 293 supernatant diluted 1:1000.
In the case of B1, the ELISA signal was 0.279.

The molecule B2 came in with an ELISA signal of 0.442.

For the molecule B3, the ELISA signal was 0.73.

Molecule B4 yielded an ELISA signal of 0.366.

For a further test the target is unchanged. Put plainly: ELISA on Influenza Hemagglutinin A (1 ug/mL); 293 supernatant diluted 1:10000.
Regarding B1, the ELISA signal was 0.15.

For the molecule B2, the ELISA signal was 0.269.

For B3, the ELISA signal is 0.405.

With B4, the ELISA signal was found to be 0.058.

A further test has as its target Influenza Hemagglutinin B (influenza B virus). The test is described as follows: ELISA on Influenza Hemagglutinin B (1 ug/mL); 293 supernatant diluted 1:1000.
Regarding B1, the ELISA signal came to 1.63.

Consider B2, for which the ELISA signal turned out to be 1.2.

Molecule B3 returned an ELISA signal of 0.61.

On to B4, for which the ELISA signal is 0.738.
